Experimental data taken from publication PMC9482650, “Quantitative fragmentomics allow affinity mapping of interactomes” (Nature Communications, 2022).

T1: LNX2_3, Q8N448
T1 sequence (Q8N448 463-564, limits assumed, looked up): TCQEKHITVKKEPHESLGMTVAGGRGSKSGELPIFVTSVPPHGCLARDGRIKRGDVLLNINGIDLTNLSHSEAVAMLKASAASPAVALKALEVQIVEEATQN

T2: SHANK1, Q9Y566
T2 sequence (Q9Y566 658-767, limits assumed, looked up): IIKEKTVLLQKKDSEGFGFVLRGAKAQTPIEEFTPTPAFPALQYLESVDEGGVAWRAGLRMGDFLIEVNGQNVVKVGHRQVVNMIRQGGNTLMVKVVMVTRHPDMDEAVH

T3: LRRC7, Q96NW7
T3 sequence (Q96NW7 1440-1537, limits assumed, looked up): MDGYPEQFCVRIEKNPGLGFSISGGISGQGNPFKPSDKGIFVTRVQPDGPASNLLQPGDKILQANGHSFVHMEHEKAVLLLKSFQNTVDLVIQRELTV

T4: APBA3_1, O96018
T4 sequence (O96018 389-490, limits assumed, looked up): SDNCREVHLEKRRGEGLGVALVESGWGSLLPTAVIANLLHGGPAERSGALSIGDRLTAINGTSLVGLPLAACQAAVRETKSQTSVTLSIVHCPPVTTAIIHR

T5: RAPGEF6, Q8TEU7
T5 sequence (Q8TEU7 525-625, limits assumed, looked up): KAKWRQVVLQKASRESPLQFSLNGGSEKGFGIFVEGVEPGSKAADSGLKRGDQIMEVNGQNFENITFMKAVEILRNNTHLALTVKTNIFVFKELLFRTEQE

T6: LIN7C, Q9NUP9
T6 sequence (Q9NUP9 88-185, limits assumed, looked up): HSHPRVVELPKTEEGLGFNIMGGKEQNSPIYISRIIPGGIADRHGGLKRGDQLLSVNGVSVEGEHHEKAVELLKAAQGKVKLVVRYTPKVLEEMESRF

T7: ARHGAP21, Q5T5U3
T7 sequence (Q5T5U3 45-169, limits assumed, looked up): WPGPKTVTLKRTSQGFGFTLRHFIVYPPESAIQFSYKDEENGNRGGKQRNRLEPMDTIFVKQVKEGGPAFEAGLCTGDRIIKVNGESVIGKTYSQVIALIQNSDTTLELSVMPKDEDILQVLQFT

T8: APBA1_1, Q02410
T8 sequence (Q02410 651-752, limits assumed, looked up): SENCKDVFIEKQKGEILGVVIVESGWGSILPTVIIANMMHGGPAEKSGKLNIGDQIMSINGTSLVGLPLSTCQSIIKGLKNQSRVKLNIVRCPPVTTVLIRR

T9: FRMPD1, Q5SYB0
T9 sequence (Q5SYB0 52-145, limits assumed, looked up): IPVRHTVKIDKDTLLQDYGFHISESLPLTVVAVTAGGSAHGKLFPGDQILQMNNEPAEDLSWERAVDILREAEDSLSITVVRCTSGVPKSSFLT

T10: DLG3_3, Q92796
T10 sequence (Q92796 374-475, limits assumed, looked up): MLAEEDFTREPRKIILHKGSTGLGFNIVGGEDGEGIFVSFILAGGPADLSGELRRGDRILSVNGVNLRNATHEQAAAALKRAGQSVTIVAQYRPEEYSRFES

T11: TJP3_3, O95049
T11 sequence (O95049 375-456, limits assumed, looked up): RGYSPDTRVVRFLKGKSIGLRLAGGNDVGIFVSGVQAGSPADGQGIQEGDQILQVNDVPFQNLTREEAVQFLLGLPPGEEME


molecular target: T1, LNX2_3, Q8N448; test: holdup assay; parameters: key: below the threshold = too weak to quantify, mostly under pKd 3.1 to 4; settings: plain residues with an end cap or a label only (N-terminal biotin on a linker: ado-ado)

Binder	pKd
PPYRHRNTVV [ERBB4, Q15303]	below the threshold
RRISSLESEV [GRIN2C, Q14957]	below the threshold

molecular target: PTPN3, P26045; test: holdup assay; parameters: key: below the threshold = too weak to quantify, mostly under pKd 3.1 to 4; settings: plain residues with an end cap or a label only (N-terminal biotin on a linker: ado-ado)
Sequence (P26045 505-587): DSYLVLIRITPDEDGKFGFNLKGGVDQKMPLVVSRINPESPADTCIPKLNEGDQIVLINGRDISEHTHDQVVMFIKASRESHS

Binder	pKd
PPYRHRNTVV [ERBB4, Q15303]	3.89
RRISSLESEV [GRIN2C, Q14957]	4.98

molecular target: T2, SHANK1, Q9Y566; test: holdup assay; parameters: key: below the threshold = too weak to quantify, mostly under pKd 3.1 to 4; settings: plain residues with an end cap or a label only (N-terminal biotin on a linker: ado-ado)

Binder	pKd
PPYRHRNTVV [ERBB4, Q15303]	below the threshold
RRISSLESEV [GRIN2C, Q14957]	below the threshold

molecular target: Inadl_2, Q8NI35; test: holdup assay; parameters: key: below the threshold = too weak to quantify, mostly under pKd 3.1 to 4; settings: plain residues with an end cap or a label only (N-terminal biotin on a linker: ado-ado)
Sequence (Q8NI35 238-335): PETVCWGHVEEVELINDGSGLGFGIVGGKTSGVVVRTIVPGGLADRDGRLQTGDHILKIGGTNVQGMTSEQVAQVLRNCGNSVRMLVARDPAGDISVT

Binder	pKd
PPYRHRNTVV [ERBB4, Q15303]	below the threshold
RRISSLESEV [GRIN2C, Q14957]	below the threshold

molecular target: T3, LRRC7, Q96NW7; test: holdup assay; parameters: key: below the threshold = too weak to quantify, mostly under pKd 3.1 to 4; settings: plain residues with an end cap or a label only (N-terminal biotin on a linker: ado-ado)

Binder	pKd
PPYRHRNTVV [ERBB4, Q15303]	below the threshold
RRISSLESEV [GRIN2C, Q14957]	4.05

molecular target: PDLIM1, O00151; test: holdup assay; parameters: key: below the threshold = too weak to quantify, mostly under pKd 3.1 to 4; settings: plain residues with an end cap or a label only (N-terminal biotin on a linker: ado-ado)
Sequence (O00151 1-87): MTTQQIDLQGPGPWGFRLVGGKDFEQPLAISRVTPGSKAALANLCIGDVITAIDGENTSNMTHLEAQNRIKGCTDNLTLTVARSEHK

Binder	pKd
PPYRHRNTVV [ERBB4, Q15303]	below the threshold
RRISSLESEV [GRIN2C, Q14957]	3.75

molecular target: T4, APBA3_1, O96018; test: holdup assay; parameters: key: below the threshold = too weak to quantify, mostly under pKd 3.1 to 4; settings: plain residues with an end cap or a label only (N-terminal biotin on a linker: ado-ado)

Binder	pKd
PPYRHRNTVV [ERBB4, Q15303]	below the threshold
RRISSLESEV [GRIN2C, Q14957]	below the threshold

molecular target: NHERF4_2, Q86UT5; test: holdup assay; parameters: key: below the threshold = too weak to quantify, mostly under pKd 3.1 to 4; settings: plain residues with an end cap or a label only (N-terminal biotin on a linker: ado-ado)
Sequence (Q86UT5 220-308): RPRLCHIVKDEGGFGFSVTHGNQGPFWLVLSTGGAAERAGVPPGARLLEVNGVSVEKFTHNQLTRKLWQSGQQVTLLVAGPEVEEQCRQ

Binder	pKd
PPYRHRNTVV [ERBB4, Q15303]	below the threshold
RRISSLESEV [GRIN2C, Q14957]	below the threshold

molecular target: DLG2_2, Q15700; test: holdup assay; parameters: key: below the threshold = too weak to quantify, mostly under pKd 3.1 to 4; settings: plain residues with an end cap or a label only (N-terminal biotin on a linker: ado-ado)
Sequence (Q15700 189-283): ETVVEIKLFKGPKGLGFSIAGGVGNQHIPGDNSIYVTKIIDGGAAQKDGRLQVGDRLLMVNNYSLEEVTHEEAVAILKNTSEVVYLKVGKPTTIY

Binder	pKd
PPYRHRNTVV [ERBB4, Q15303]	4.95
RRISSLESEV [GRIN2C, Q14957]	5.11

molecular target: GRID2IP_1, A4D2P6; test: holdup assay; parameters: key: below the threshold = too weak to quantify, mostly under pKd 3.1 to 4; settings: plain residues with an end cap or a label only (N-terminal biotin on a linker: ado-ado)
Sequence (A4D2P6 1-87): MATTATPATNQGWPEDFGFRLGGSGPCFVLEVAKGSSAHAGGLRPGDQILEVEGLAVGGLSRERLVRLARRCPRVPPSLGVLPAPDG

Binder	pKd
PPYRHRNTVV [ERBB4, Q15303]	3.89
RRISSLESEV [GRIN2C, Q14957]	below the threshold

molecular target: MAGI2_4, Q86UL8; test: holdup assay; parameters: key: below the threshold = too weak to quantify, mostly under pKd 3.1 to 4; settings: plain residues with an end cap or a label only (N-terminal biotin on a linker: ado-ado)
Sequence (Q86UL8 772-865): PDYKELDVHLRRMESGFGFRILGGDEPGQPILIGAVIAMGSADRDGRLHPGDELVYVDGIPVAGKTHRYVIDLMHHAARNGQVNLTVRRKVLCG

Binder	pKd
PPYRHRNTVV [ERBB4, Q15303]	4.43
RRISSLESEV [GRIN2C, Q14957]	3.95

molecular target: Inadl_4, Q8NI35; test: holdup assay; parameters: key: below the threshold = too weak to quantify, mostly under pKd 3.1 to 4; settings: plain residues with an end cap or a label only (N-terminal biotin on a linker: ado-ado)
Sequence (Q8NI35 547-651): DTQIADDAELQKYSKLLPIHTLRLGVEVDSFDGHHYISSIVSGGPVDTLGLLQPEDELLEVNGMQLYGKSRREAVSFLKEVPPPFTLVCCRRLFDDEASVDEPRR

Binder	pKd
PPYRHRNTVV [ERBB4, Q15303]	below the threshold
RRISSLESEV [GRIN2C, Q14957]	below the threshold

molecular target: MAGI3_2, Q5TCQ9; test: holdup assay; parameters: key: below the threshold = too weak to quantify, mostly under pKd 3.1 to 4; settings: plain residues with an end cap or a label only (N-terminal biotin on a linker: ado-ado)
Sequence (Q5TCQ9 398-503): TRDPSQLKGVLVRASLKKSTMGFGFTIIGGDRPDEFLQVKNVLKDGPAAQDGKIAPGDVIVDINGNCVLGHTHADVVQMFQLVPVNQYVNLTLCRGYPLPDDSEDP

Binder	pKd
PPYRHRNTVV [ERBB4, Q15303]	4.79
RRISSLESEV [GRIN2C, Q14957]	4.96

molecular target: T5, RAPGEF6, Q8TEU7; test: holdup assay; parameters: key: below the threshold = too weak to quantify, mostly under pKd 3.1 to 4; settings: plain residues with an end cap or a label only (N-terminal biotin on a linker: ado-ado)

Binder	pKd
PPYRHRNTVV [ERBB4, Q15303]	below the threshold
RRISSLESEV [GRIN2C, Q14957]	below the threshold

molecular target: LDB3, O75112; test: holdup assay; parameters: key: below the threshold = too weak to quantify, mostly under pKd 3.1 to 4; settings: plain residues with an end cap or a label only (N-terminal biotin on a linker: ado-ado)
Sequence (O75112 1-94): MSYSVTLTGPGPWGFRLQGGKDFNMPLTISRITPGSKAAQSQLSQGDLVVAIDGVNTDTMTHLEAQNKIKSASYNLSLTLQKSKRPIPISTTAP

Binder	pKd
PPYRHRNTVV [ERBB4, Q15303]	below the threshold
RRISSLESEV [GRIN2C, Q14957]	below the threshold

molecular target: T6, LIN7C, Q9NUP9; test: holdup assay; parameters: key: below the threshold = too weak to quantify, mostly under pKd 3.1 to 4; settings: plain residues with an end cap or a label only (N-terminal biotin on a linker: ado-ado)

Binder	pKd
PPYRHRNTVV [ERBB4, Q15303]	below the threshold
RRISSLESEV [GRIN2C, Q14957]	4.29

molecular target: T7, ARHGAP21, Q5T5U3; test: holdup assay; parameters: key: below the threshold = too weak to quantify, mostly under pKd 3.1 to 4; settings: plain residues with an end cap or a label only (N-terminal biotin on a linker: ado-ado)

Binder	pKd
PPYRHRNTVV [ERBB4, Q15303]	4.08
RRISSLESEV [GRIN2C, Q14957]	below the threshold

molecular target: FRMPD2_1, Q68DX3; test: holdup assay; parameters: key: below the threshold = too weak to quantify, mostly under pKd 3.1 to 4; settings: plain residues with an end cap or a label only (N-terminal biotin on a linker: ado-ado)
Sequence (Q68DX3 770-861): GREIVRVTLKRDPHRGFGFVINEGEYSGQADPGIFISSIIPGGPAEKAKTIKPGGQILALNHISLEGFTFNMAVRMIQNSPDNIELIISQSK

Binder	pKd
PPYRHRNTVV [ERBB4, Q15303]	3.71
RRISSLESEV [GRIN2C, Q14957]	below the threshold

molecular target: T8, APBA1_1, Q02410; test: holdup assay; parameters: key: below the threshold = too weak to quantify, mostly under pKd 3.1 to 4; settings: plain residues with an end cap or a label only (N-terminal biotin on a linker: ado-ado)

Binder	pKd
PPYRHRNTVV [ERBB4, Q15303]	below the threshold
RRISSLESEV [GRIN2C, Q14957]	below the threshold

molecular target: T9, FRMPD1, Q5SYB0; test: holdup assay; parameters: key: below the threshold = too weak to quantify, mostly under pKd 3.1 to 4; settings: plain residues with an end cap or a label only (N-terminal biotin on a linker: ado-ado)

Binder	pKd
PPYRHRNTVV [ERBB4, Q15303]	below the threshold
RRISSLESEV [GRIN2C, Q14957]	below the threshold

molecular target: T10, DLG3_3, Q92796; test: holdup assay; parameters: key: below the threshold = too weak to quantify, mostly under pKd 3.1 to 4; settings: plain residues with an end cap or a label only (N-terminal biotin on a linker: ado-ado)

Binder	pKd
PPYRHRNTVV [ERBB4, Q15303]	4.16
RRISSLESEV [GRIN2C, Q14957]	4.11

molecular target: MAGI2_3, Q86UL8; test: holdup assay; parameters: key: below the threshold = too weak to quantify, mostly under pKd 3.1 to 4; settings: plain residues with an end cap or a label only (N-terminal biotin on a linker: ado-ado)
Sequence (Q86UL8 600-682): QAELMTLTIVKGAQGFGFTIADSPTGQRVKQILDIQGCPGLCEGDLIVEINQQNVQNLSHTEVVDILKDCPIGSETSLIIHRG

Binder	pKd
PPYRHRNTVV [ERBB4, Q15303]	below the threshold
RRISSLESEV [GRIN2C, Q14957]	4.11

molecular target: NHERF4_1, Q86UT5-2; test: holdup assay; parameters: key: below the threshold = too weak to quantify, mostly under pKd 3.1 to 4; settings: plain residues with an end cap or a label only (N-terminal biotin on a linker: ado-ado)
Sequence (Q86UT5 other isoform, or with tags, fused parts or gaps): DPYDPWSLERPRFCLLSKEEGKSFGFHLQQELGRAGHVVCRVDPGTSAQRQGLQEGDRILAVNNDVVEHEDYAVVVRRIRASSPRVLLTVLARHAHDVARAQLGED

Binder	pKd
PPYRHRNTVV [ERBB4, Q15303]	below the threshold
RRISSLESEV [GRIN2C, Q14957]	3.71

molecular target: AHNAK1, Q09666; test: holdup assay; parameters: key: below the threshold = too weak to quantify, mostly under pKd 3.1 to 4; settings: plain residues with an end cap or a label only (N-terminal biotin on a linker: ado-ado)
Sequence (Q09666 4-100): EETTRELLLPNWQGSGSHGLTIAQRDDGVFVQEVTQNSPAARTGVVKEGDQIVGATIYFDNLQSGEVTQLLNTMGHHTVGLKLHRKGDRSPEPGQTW

Binder	pKd
PPYRHRNTVV [ERBB4, Q15303]	below the threshold
RRISSLESEV [GRIN2C, Q14957]	below the threshold

molecular target: T11, TJP3_3, O95049; test: holdup assay; parameters: key: below the threshold = too weak to quantify, mostly under pKd 3.1 to 4; settings: plain residues with an end cap or a label only (N-terminal biotin on a linker: ado-ado)

Binder	pKd
PPYRHRNTVV [ERBB4, Q15303]	below the threshold
RRISSLESEV [GRIN2C, Q14957]	below the threshold

molecular target: PARD3_3, Q8TEW0; test: holdup assay; parameters: key: below the threshold = too weak to quantify, mostly under pKd 3.1 to 4; settings: plain residues with an end cap or a label only (N-terminal biotin on a linker: ado-ado)
Sequence (Q8TEW0 582-685): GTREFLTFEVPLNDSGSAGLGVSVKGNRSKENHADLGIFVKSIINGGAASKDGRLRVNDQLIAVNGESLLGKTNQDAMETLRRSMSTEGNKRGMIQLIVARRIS

Binder	pKd
PPYRHRNTVV [ERBB4, Q15303]	below the threshold
RRISSLESEV [GRIN2C, Q14957]	below the threshold

molecular target: Inadl_8, Q8NI35; test: holdup assay; parameters: key: below the threshold = too weak to quantify, mostly under pKd 3.1 to 4; settings: plain residues with an end cap or a label only (N-terminal biotin on a linker: ado-ado)
Sequence (Q8NI35 1425-1530): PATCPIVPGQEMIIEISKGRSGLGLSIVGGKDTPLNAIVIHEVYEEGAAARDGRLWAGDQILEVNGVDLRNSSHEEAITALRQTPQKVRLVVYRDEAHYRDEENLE

Binder	pKd
PPYRHRNTVV [ERBB4, Q15303]	4.29
RRISSLESEV [GRIN2C, Q14957]	3.58
